The target in assay [1] is circulating immune complexes in the serum of a patient suffering from rheumatism. The assay is described as follows: batch adsorption from the serum of a patient suffering from rheumatism, peptide on Thiopropyl Sepharose 6B (0.8 mg/ml), 37 °C 2 h, supernatant by C1q-CIC kit.
For assay [2], the target named is thermally coagulated immunoglobulin complexes. The assay is described as follows: batch adsorption from healthy human serum with 20 µg/ml thermally coagulated complexes, peptide on Thiopropyl Sepharose 6B (0.8 mg/ml), 37 °C 2 h, supernatant by C1q-CIC kit.
Assay [3] deals with IgG4 subclass in human serum. The assay is described as follows: batch adsorption from the serum of a healthy subject, peptide on Thiopropyl Sepharose 6B (0.8 mg/ml), supernatant by immune diffusion (SRID).
For assay [4], the target named is IgG2 subclass in human serum. The description is as above.
Assay [5] has as its target IgG1 subclass in human serum. The description is as above.
For assay [6], the target named is IgG3 subclass in human serum. The description is as above.
The target in assay [7] is IgG in human serum. The assay is described as follows: batch adsorption from the serum of a healthy subject, peptide on Thiopropyl Sepharose 6B (0.8 mg/ml), 37 °C 2 h, supernatant by N-Assay TIA kit.
For assay [8], the target named is IgM in human serum. The description is as above.
Assay [9] deals with IgG in human serum. The experiment in a line: batch adsorption from human serum with 20 µg/ml Model IC, peptide on GC700m gel (2.6 mg/ml), not sterilised, N-Assay TIA kit.
Assay [10] addresses thermally coagulated immunoglobulin complexes. The experiment in a line: batch adsorption from human serum with 20 µg/ml Model IC, peptide on GC700m gel (2.6 mg/ml), not sterilised, C1q-CIC enzyme immunoassay.
The target is the same in assay [11]. The experiment in a line: batch adsorption from human serum with 20 µg/ml Model IC, peptide on GC700m gel (4.0 mg/ml), not sterilised, C1q-CIC enzyme immunoassay.
The target of assay [12] is IgG in human serum. The assay is described as follows: batch adsorption from human serum with 20 µg/ml Model IC, peptide on GC700m gel (4.0 mg/ml), not sterilised, N-Assay TIA kit.
The target of assay [13] is thermally coagulated immunoglobulin complexes. The assay is described as follows: batch adsorption from human serum with 20 µg/ml Model IC, peptide on GCL2000m gel (2.1 mg/ml), 37 °C 2 h, not sterilised, C1q-CIC enzyme immunoassay.
Assay [14] has as its target IgG in human serum. The experiment in a line: batch adsorption from human serum with 20 µg/ml Model IC, peptide on GCL2000m gel (2.1 mg/ml), 37 °C 2 h, not sterilised, N-Assay TIA kit.
In assay [15] the target is IgG in human serum. The experiment in a line: batch adsorption from human serum with 20 µg/ml Model IC, peptide on GCL2000m gel (2.5 mg/ml), not sterilised, N-Assay TIA kit.
The target in assay [16] is thermally coagulated immunoglobulin complexes. The experiment in a line: batch adsorption from human serum with 20 µg/ml Model IC, peptide on GCL2000m gel (2.5 mg/ml), not sterilised, C1q-CIC enzyme immunoassay.
Assay [17] has the same target. The assay is described as follows: batch adsorption from human serum with 20 µg/ml Model IC, peptide on AF-Torecyl Toyopearl 650 (3.6 mg/ml), not sterilised, C1q-CIC enzyme immunoassay.
Assay [18] deals with IgG in human serum. The assay is described as follows: batch adsorption from human serum with 20 µg/ml Model IC, peptide on AF-Torecyl Toyopearl 650 (3.6 mg/ml), not sterilised, N-Assay TIA kit.
Assay [19] deals with IgG in human serum. The experiment in a line: batch adsorption from human serum with 20 µg/ml Model IC, peptide on GCL2000m gel (2.6 mg/ml), not sterilised, N-Assay TIA kit.
Assay [20] has as its target thermally coagulated immunoglobulin complexes. The experiment in a line: batch adsorption from human serum with 20 µg/ml Model IC, peptide on GCL2000m gel (2.6 mg/ml), not sterilised, C1q-CIC enzyme immunoassay.

B1: peptide having a sequence consisting of 57 residues of domain C3 of protein G with cysteine added to an N-terminus (peptide)
peptide: CTTYKLVINGKTLKGETTTKAVDAETAEKAFKQYANDNGVDGVWTYDDATKTFTVTE
As for B1, in assay [1], the adsorption ratio of immune complexes (%) is 29.3%. Besides, in [2], the adsorption ratio of thermally coagulated complexes (%) stood at 41.7%. The adsorption ratio of IgG subclasses (%) stood at 65.7% in assay [3], 78.9% in assay [4], 93.2% in assay [5] and 63.2% in [6]. Besides, the adsorption ratio of immunoglobulins (%) in assay [7] worked out at 83.4%; in [8], 2.7%.

B2: MP47 peptide (peptide)
peptide: MTTYKLVINGKTLKGETTTKAVDAETAEKAFKQYANDNGVDGVWTYDPATKTFTVTE
In the case of B2, in assay [9], the IgG adsorption ratio (%) turned out to be 60%. Besides, in assay [10], the IC adsorption ratio (%) came out at 35%.

B3: MG56 peptide (peptide)
peptide: MTTYKLVINGKTLKGETTTKAVDAETAEKAFKQYANDNGVDGVWTYDDATKTFTVTE
B3: in assay [11], the IC adsorption ratio (%) was determined as 30%. In [12], the IgG adsorption ratio (%) was determined as 65%.

B4: MP47C peptide (peptide)
peptide: MTTYKLVINGKTLKGETTTKAVDAETAEKAFKQYANDNGVDGVWTYDPATKTFTVTEC
B4: the IC adsorption ratio (%) in [11] came to 65%. The IgG adsorption ratio (%) in assay [12] amounted to 90%.

B5: MK3P47 peptide (peptide)
peptide: MKKKTTYKLVINGKTLKGETTTKAVDAETAEKAFKQYANDNGVDGVWTYDPATKTFTVTE
Consider B5, for which the IC adsorption ratio (%) in assay [13] was found to be 35%. Moreover, the IgG adsorption ratio (%) in assay [14] came out at 85%.

B6: MK3G56 peptide (peptide)
peptide: MKKKTTYKLVINGKTLKGETTTKAVDAETAEKAFKQYANDNGVDGVWTYDDATKTFTVTE
With B6, the IgG adsorption ratio (%) in assay [15] turned out to be 70%. The IC adsorption ratio (%) in assay [16] stood at 30%.

B7: MK3-7M peptide (peptide)
peptide: MKKKTTYKLILNGKTLKGETTTKAVDAATAEKVFKQYANDNGVDGEWTYDPATKTFTVTE
Consider B7, for which the IC adsorption ratio (%) in [17] came to 35%. For the same molecule, in [18], the IgG adsorption ratio (%) turned out to be 75%.

B8: MP47K3 peptide (peptide)
peptide: MTTYKLVINGKTLKGETTTKAVDAETAEKAFKQYANDNGVDGVWTYDPATKTFTVTEKKK
For B8, the IgG adsorption ratio (%) in assay [19] came to 70%. Moreover, the IC adsorption ratio (%) in [20] turned out to be 35%.

Values taken from US6133431.
